Assay results: article PMC3078909

Key:
Cys15 [1] = molecular target: T1, Cys15 (UniProt position 15, AANWKCNGSES); test: chemical modification (MMTS inactivation followed by enzyme activity); details: not stated for the pKa determination (MMTS inactivation and activity assays were at 25°C), 100 mM TEA, 10 mM EDTA adjusted to the desired pH, free enzyme, 5 µg/mL
Cys14 [2] = molecular target: T2, Cys14 (UniProt position 14, AANWKCNGSQQ); test: as above; details: not stated for the pKa determination (MMTS inactivation and activity assays were at 25°C); 100 mM TEA, 10 mM EDTA adjusted to the desired pH; free enzyme, 5 µg/mL, 80 µM MMTS
Cys14 [3] = molecular target: T2, Cys14; test: chemical modification (as in ref 24; this article says its new determinations were made 'under the same conditions'); details: free enzyme; cited from earlier work
Cys14 [4] = test: chemical modification (MMTS inactivation followed by enzyme activity); details: not stated for the pKa determination (MMTS inactivation and activity assays were at 25°C); 100 mM TEA, 10 mM EDTA adjusted to the desired pH; free enzyme, 5 µg/mL, 80 µM MMTS
Cys15 [5] = molecular target: Cys15 (UniProt position 14, AANWKCNGSQQ); test: as above; details: not stated for the pKa determination (MMTS inactivation and activity assays were at 25°C); 100 mM TEA, 10 mM EDTA adjusted to the desired pH; free enzyme, 5 µg/mL, 80 µM MMTS
Cys15 [6] = molecular target: T1, Cys15; test: chemical modification (as in ref 24; this article says its new determinations were made 'under the same conditions'); details: free enzyme; cited from earlier work
[7] = 10 and 80 µM MMTS (mean of both)

Substance: Chimera TcTIM 1-3 (regions 1-3 of TcTIM, regions 4-8 of TbTIM) (Trypanosoma cruzi / Trypanosoma brucei chimera; regions 4-8 of TcTIM replaced by the TbTIM sequence (individual substitutions not listed in the text))
- pKa (Cys15 [1]; [7]): 9.86±0.05

Substance: Triosephosphate isomerase (TbTIM), wild type (Trypanosoma brucei)
- pKa (Cys14 [2]): 10.53±0.06
- pKa (Cys14 [3]): 10.08±0.03

Substance: Chimera TcTIM 1-3, 5-8 (TcTIM with region 4 of TbTIM) (Trypanosoma cruzi / Trypanosoma brucei chimera; region 4 of TcTIM replaced by the TbTIM sequence (5 substitutions, not listed individually in the text))
- pKa (Cys15 [1]; [7]): 9.59±0.06

Substance: Chimera TcTIM 2,3, 5-8 (TcTIM with regions 1 and 4 of TbTIM) (Trypanosoma cruzi / Trypanosoma brucei chimera; regions 1 and 4 of TcTIM replaced by the TbTIM sequence (13 + 5 differing residues, not listed individually in the text))
- pKa (Cys14 [4]): 10.61±0.06

Substance: Chimera TcTIM 1 (region 1 of TcTIM, regions 2-8 of TbTIM) (Trypanosoma cruzi / Trypanosoma brucei chimera; region 1 of TbTIM replaced by the TcTIM sequence (13 differing residues plus a one-residue N-terminal length difference; individual substitutions not listed in the text))
- pKa (Cys15 [5]): 9.49±0.08

Substance: Chimera TcTIM 1-4 (regions 1-4 of TcTIM, regions 5-8 of TbTIM) (Trypanosoma cruzi / Trypanosoma brucei chimera; regions 5-8 of TcTIM replaced by the TbTIM sequence (individual substitutions not listed in the text; Figure 1 is image only))
- pKa (Cys15 [1]; 10 µM MMTS): 9.17±0.12

Substance: Triosephosphate isomerase (TcTIM), wild type (Trypanosoma cruzi)
- pKa (Cys15 [1]; 10 µM MMTS): 9.27±0.16
- pKa (Cys15 [6]): 9.28±0.07
